Results published in patent US20140274782A1, “AFFINITY REAGENTS AND METHODS FOR DETECTION, PURIFICATION, AND PROTEOMIC ANALYSIS OF METHYLATED PROTEINS” (The Board of Trustees of the Leland Stanford Junior …, priority 2013, published 2014).

Target: RPL14-60S ribosomal protein L14 (human) (UniProt P50914)
Assay: ProtoArray, GST-treated control array

3× Flag-3×MBT (designed binder; other documents disagree on this pair), sequence (Q9Y468 258-598): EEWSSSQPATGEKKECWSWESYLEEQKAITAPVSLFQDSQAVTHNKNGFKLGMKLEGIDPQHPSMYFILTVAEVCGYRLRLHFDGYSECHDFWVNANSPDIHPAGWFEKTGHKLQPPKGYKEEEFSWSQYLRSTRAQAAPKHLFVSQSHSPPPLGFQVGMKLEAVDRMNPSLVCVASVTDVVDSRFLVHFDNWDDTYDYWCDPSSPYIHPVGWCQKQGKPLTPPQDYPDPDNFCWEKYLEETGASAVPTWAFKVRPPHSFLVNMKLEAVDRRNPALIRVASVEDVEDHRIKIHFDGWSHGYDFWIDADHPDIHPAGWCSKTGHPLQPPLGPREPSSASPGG

- GST Average SNR: 0.728
Substance: 3× Flag-3×MBT (designed binder; other documents disagree on this pair)
